Measured values taken from PMC11417995 (2024).

Biological target: ubiquitin (Homo sapiens, UniProt P0CG47)
Assay: PPI-CONA

- Kd: 12.2 µM
B1: CDC34A (protein)
chain: MARPLVPSSQKALLLELKGLQEEPVEGFRVTLVDEGDLYNWEVAIFGPPNTYYEGGYFKARLKFPIDYPYSPPAFRFLTKMWHPNIYETGDVCISILHPPVDDPQSGELPSERWNPTQNVRTILLSVISLLNEPNTFSPANVDASVMYRKWKESKGKDREYTDIIRKQVLGTKVDAERDGVKVPTTLAEYCVKTKAPAPDEGSDLFYDDYYEDGEVEEEADSCFGDDEDDSGTEES
modifications: CC0651
